Test results reported in the supplement of paper PMC9170038.

Columns and labels:
MS2 coat protein [1] = test: apparent KD of MS2 coat protein, switch ON state; designed switch direction (-1 OFF switch, 1 ON switch): -1; higher = weaker reporter binding; conditions: FMN input: 0 or 200 uM; Eterna round: R93 (includes R88 designs)
How it was run: (§1)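 Apparent KD is reported per design as the median of normalised binding-curve fits across its clusters. The RNA switches were made by on-chip transcription from Illumina sequencing clusters. SNAP-549-labelled MS2 coat protein was then added in twofold steps (0.7 or 1.5 nM to 3 µM; 0.8–1.5 h to 10–20 min per step) in 100 mM Tris-HCl pH 7.5, 80 mM KCl, 4 mM MgCl2, without or with constant ligand.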

MS2 coat protein [2] = test: apparent KD of MS2 coat protein, switch OFF state (with FMN for OFF switches, without FMN for ON switches); designed switch direction (-1 OFF switch, 1 ON switch): -1; higher = weaker reporter binding; conditions: FMN input: 0 or 200 uM; Eterna round: R93 (includes R88 designs)
How it was run: as §1

Sequence	apparent KD of MS2 coat protein (MS2 coat protein [1]) [nM]	apparent KD of MS2 coat protein (MS2 coat protein [2]) [nM]
AAGAAGAUAGGAUAUACAAAAUAAAAGAAAAGAAAGAAAGAACAUGAGGAUCACCCAUGUAGAAGGGUCAAGAA [Kheperkare Senusret I]	54.6	56.5
AAGAAGAUAGGAUAUACAAGAAAGAAAGAAAAGAAAAGAAAACAUGAGGAUCACCCAUGUAGAAGGAUCUAGAA [EteRNA is fun!]	30.8	15.9
AAGAAGCUAGGAUAUACAUGAGGAUCACCCAUGUAAAAGAAAGAAGGGAAAGAGAAAAGUAGAAGGAGCAAGAA [Tefnakht]	26.6	34.4
AAGAAGGCAGGAUAUACAUGAGGAUCACCCAUGUAAAAGAAAGAAAAGGGAAAGAAAAGUAGAAGGGCCAAGAA [Kamose]	35.4	72.1
AAGAAGGUAGGAUAUGCUAAAGAAAUAAAAAUAAAUAAAGAACAUGAGGAUCACCCAUGUAGAAGGGCCAAGAA [Mer[...]re]	47.3	27.9
AAGAAGUCAGGAUAUACAUGAGGAUCACCCAUGUAAAAGAAAGAAAGGGAAAAGAAAAGUAGAAGGGACAAGAA [Usermaatre-akhenamun Ramesses VIII]	18.2	25.5
AAGAAGUCAGGAUAUACAUGAGGAUCACCCAUGUAAAAGAAAGAAGGGAAAGAGAAAAGUAGAAGGGACAAGAA [Usermaatre-setpenamun Takelot III]	31.9	19.9
AAGAAGUCAGGAUAUGCCAGAGAACAAGAAAGUGAAGAAUAGCAGAAGGGACAUGAGGAUCACCCAUGUAAAGA [Opal 11]	46.9	34.5
AAGAAGUCAGGAUAUGCCAGAGAUCACGAAAGUGACUAAGGGCAGAAGGGACAUGAGGAUCACCCAUGUAAAGA [Opal 5]	63.4	62.1
AAGAAGUGAGGAUAUCGAAGACUGUCGAAAAGACAGUCGAACGAGAAGGCACAUGAGGAUCACCCAUGUGAGAA [Marsurpial 65% 1]	31	55.6
AAGAAGUGAGGAUAUGCAAAAGAAAAGAAAAGAAAAGAAAAGCAGAAGGCACAUGAGGAUCACCCAUGUAAGAA [Petubastis III]	12.8	28.9
AAGAAUCGAGGAUAUACAUGAGGAUCACCCAUGUAAAAGAAAGAAAGGGAAAAGAAAAGUAGAAGGCGAAAGAA [Usermaatre-setepenre Shoshenq III]	23.4	23.6
AAGAAUGGAGGAUAUACAUGAGGAUCACCCAUGUAAAAGAAAGAGGGAAAAGAGAAAAGUAGAAGGCCAAAGAA [Ptolemy VII Neos Philopator]	36	34.4
AAGACUACAGGAUAUACAUGAGGAUCACCCAUGUAACUGACAAGUAGAGUACGGAGAAGUAGAAGGGUAGUCAA [Ruby 34]	14.9	17.6
AAGACUAGAGGAUAUACAUGAGGAUCACCCAUGUAACUGUCAGGAAACUGACGGAGAAGUAGAAGGCUAGUCAA [Mat - Exclusion 3 - JL mod - D85]	16.1	20.2
AAGGGACAUGAGGAUCACCCAUGUAAGGAUAUCGGAAAAGGAAAAAAAAAAAAUAAGACGAGAAGGUACAAAAA [Mat - Exclusion 1 - Eli mod - D80]	70.2	73.5
AAUGCGGCAGGAUAUACAUGAGGAUCACCCAUGUACAUCAGAUAUAUGGUCGAACCAUGUAGAAGGGCCGCAAA [Ex 3May 57]	87.3	202
ACAGUUACAGGAUAUACAAGGGAAAAUAAAAAUAAACUUCAACAUGAGGAUCACCCAUGUAGAAGGGUAACUGA [Ex2 Design 199: Random 14]	35.5	112
ACAUGACAUGAGGAUCACCCAUGUGAGGAUAUGCGAAAAAAAUUUUUAAAAAAAAUUGGCAGAAGGCACAAAAU [George Ritzer.]	88.9	99.1
ACAUGUACAGGAUAUACAUGGAAAAAAAAAAAAAAAAAACUACAUGAGGAUCACCCAUGUAGAAGGGUACAUGA [Ex2 Design 193: Random 12B]	25.8	25.7

Sequence	apparent KD of MS2 coat protein (MS2 coat protein [1]) [nM]	apparent KD of MS2 coat protein (MS2 coat protein [2]) [nM]
ACCUUACAUGAGGAUCACCCAUGUUAGGAUAUCUCGCUUUCGCAAUCACAGCGCAAGCAGAGAAGGGACACGGG [Esceari]	28.3	66.6
ACUAUACGAGGAUAUGCUGUCAACACUAAGGAAUUCGUAUGACAUGAGGAUCACCCAUGUAGAAGGCGUAUACU [JR_Exc002_Sub510]	23.3	27.7
AGAAAACAUGAGGAUCACCCAUGUCAGGAUAUGUAAAAGAAAAGAAAAGAAAGAAGAAGCAGAAGGGACAAGAA [Sekhemkhet]	28.8	36.8
AGAAACGAAGGAUAUACAUGAGGAUCACCCAUGUAAAGAAAGAGGAGAGCCACAAGAAGUAGAAGGUCGAAGAA [JR_Exc003_Sub007]	27.4	50.7
AGAAAGACAGGAUAUACAUGAGGAUCACCCAUGUAAAAGAAAGAAAAGGGAAAGAAAAGUAGAAGGGUCAAAGA [Ruby 64]	22.1	42.1
AGAAAGUCAGGAUAUGCAGAAAAAAAAACGAAAAAAAAACUGCAGAAGGGACAUGAGGAUCACCCAUGUUAAGA [Mat - Exclusion 4 - Mayanna - D130]	49	49
AGAAUUGUAGGAUAUACAUGAGGAUCACCCAUGUGGGAGGUGGAGCAAACAAGACGAGGUAGAAGGACAACGAC [JR_Exc003-Sub904]	134	125
AGAGAGUCAGGAUAUACGAAAGAAAAGGGAAACAACAAGGGACAUGAGGAUCACCCAUGUAGAAGGGACGAGAA [Diamond 99]	99.8	49.8
AGAGGACAUGAGGAUCACCCAUGUGAGGAUAUGCAAAACUAAGGACAAGAUCGGUAUAGCAGAAGGCACGUAGU [JR_EXc001_Sub808]	46.7	78.2
AGCAAGUGAGGAUAUGCGAAGUCAGGACACACACUGACGAAGCAGAAGGCACAUGAGGAUCACCCAUGUAAGCA [JR_Exclusion-4 65% 1]	33.1	27.1
AGCAUGUGAGGAUAUGUGACCCUCGUCCUAAGGAUGAGGAAAUAGAAGGCACAUGAGGAUCACCCAUGUGAUGA [Eratusar]	65.4	293
AGCUAACAUGAGGAUCACCCAUGUCAGGAUAUGCAAAGAUCGAUCGAACGAUCGAUAAGCAGAAGGGACACUGA [Amethyst 94]	27.1	47.5
AGCUAGACAGGAUAUACGAACAUGUCAAAAGACGUAAGGGAACAUGAGGAUCACCCAUGUAGAAGGGUCUAGCA [Diamond 50]	28.5	63.9
AGCUAGUCAGGAUAUACAAACAUGUCAAAAGACGUGAAGAAACAUGAGGAUCACCCAUGUAGAAGGGACUAGCA [Mat - Exclusion 2 - JL mod - D16]	19.9	14.5
AGCUAGUCAGGAUAUACAAACAUGUCGAAAGACGUGAAGGGACAUGAGGAUCACCCAUGUAGAAGGGACUAGCA [Mod of Janderson's WEB Mod v.2]	50	273
AGCUAGUCAGGAUAUACGAACAGCUCAAAAGAGCUGAAGGGACAUGAGGAUCACCCAUGUAGAAGGGACUAGCA [Mat - Exclusion 2 - JL mod - D27]	24.5	89.6
AGCUAGUCAGGAUAUACGAACAUGACAAAAGACGUGAAGGGACAUGAGGAUCACCCAUGUAGAAGGGACUAGCA [74%, Web mod - With 1 less U's]	38.7	89.7
AGCUAGUGAGGAUAUACGAACAAGUAAACGGACUGUAAGGGACAUGAGGAUCACCCAUGUAGAAGGCACUAGCA [Diamond 59]	28.6	74.5
AGCUAGUGAGGAUAUACGAACACGUAACAGGACUGUAAGGGACAUGAGGAUCACCCAUGUAGAAGGCACUAGCA [Diamond 61]	33.9	77
AGCUAGUGAGGAUAUGCGAACAUGUCAAAAGACGUGAAGGGACAUGAGGAUCACCCAUGUAGAAGGCGCUAGCA [JL 74% mod 2]	33	32.7
